Laboratory results taken from article PMC8020760, “Assembly of a dsRNA synthesizing complex: RNA-DEPENDENT RNA POLYMERASE 2 contacts the largest subunit of NUCLEAR RNA POLYMERASE IV” (Proceedings of the National Academy of Sciences of the …, 2021).

Columns and labels:
[1] = molecular target: T1, NRPD1-FLAG of plant Pol IV, as the band of about 165 kDa resolved by SDS-PAGE (A. thaliana, UniProt Q9LQ02 1-1453); assay: far-Western, overlay or dot blot; far-Western: affinity-purified FLAG-tagged Pol II, Pol IV and Pol V resolved by SDS-PAGE, electroblotted to nitrocellulose, incubated with recombinant V5-tagged RDR2, detected with anti-V5-HRP; conditions: both partners purified
T1 construct: NRPD1, largest catalytic subunit of Pol IV, A. thaliana; full-length NRPD1 is 1,453 amino acids; The band is assigned to NRPD1 by its size only; also called largest Pol IV subunit
T1 sequence (looked up): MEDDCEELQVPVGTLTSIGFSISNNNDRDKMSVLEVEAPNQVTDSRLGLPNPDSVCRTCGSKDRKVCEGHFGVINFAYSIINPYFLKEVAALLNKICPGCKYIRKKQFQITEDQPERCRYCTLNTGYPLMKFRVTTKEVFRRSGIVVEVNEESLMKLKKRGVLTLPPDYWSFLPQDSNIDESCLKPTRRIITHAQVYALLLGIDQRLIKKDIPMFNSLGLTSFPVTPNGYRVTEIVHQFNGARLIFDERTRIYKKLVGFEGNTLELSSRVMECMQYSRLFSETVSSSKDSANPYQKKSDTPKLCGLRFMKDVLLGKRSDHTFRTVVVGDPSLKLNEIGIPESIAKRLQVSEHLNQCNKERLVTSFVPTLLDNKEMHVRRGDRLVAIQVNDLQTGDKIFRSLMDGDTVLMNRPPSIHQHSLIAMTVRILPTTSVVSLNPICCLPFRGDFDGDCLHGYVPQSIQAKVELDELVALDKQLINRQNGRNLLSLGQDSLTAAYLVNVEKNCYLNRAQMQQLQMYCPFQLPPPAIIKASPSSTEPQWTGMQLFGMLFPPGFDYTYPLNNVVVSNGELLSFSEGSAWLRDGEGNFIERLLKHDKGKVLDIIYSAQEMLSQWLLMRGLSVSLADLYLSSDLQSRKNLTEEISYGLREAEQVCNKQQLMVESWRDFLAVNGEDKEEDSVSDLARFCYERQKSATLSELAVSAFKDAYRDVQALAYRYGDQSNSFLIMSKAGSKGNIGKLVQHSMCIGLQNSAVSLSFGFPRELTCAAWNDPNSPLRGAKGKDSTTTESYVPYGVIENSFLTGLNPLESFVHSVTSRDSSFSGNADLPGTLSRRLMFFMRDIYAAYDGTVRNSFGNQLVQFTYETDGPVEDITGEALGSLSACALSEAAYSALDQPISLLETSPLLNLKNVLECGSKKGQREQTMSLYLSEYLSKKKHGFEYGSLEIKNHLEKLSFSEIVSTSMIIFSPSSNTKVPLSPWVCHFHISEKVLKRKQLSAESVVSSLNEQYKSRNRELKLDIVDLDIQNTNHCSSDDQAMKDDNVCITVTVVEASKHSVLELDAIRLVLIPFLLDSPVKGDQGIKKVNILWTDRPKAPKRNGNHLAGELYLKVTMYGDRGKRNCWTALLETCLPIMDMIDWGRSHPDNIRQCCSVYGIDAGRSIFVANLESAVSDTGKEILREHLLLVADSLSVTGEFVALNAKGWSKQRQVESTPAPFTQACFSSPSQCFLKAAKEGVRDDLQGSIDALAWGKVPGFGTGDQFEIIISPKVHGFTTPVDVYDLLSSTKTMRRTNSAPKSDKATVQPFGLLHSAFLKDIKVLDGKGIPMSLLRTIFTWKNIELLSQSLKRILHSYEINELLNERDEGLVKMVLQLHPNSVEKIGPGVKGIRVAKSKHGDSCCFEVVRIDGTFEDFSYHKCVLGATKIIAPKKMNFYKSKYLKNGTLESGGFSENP

[2] = molecular target: T2, recombinant NRPD1 fused at its C terminus to a FLAG epitope tag (A. thaliana, UniProt Q9LQ02 1-1453); assay: co-IP; purified recombinant proteins, 0.25 µM each, 30 min, room temperature, 50 mM Hepes-KOH pH 7.5, 150 mM NaCl; IP with resin against the tag of one or the other partner (anti-FLAG, anti-V5 or anti-HA); immunoblot; conditions: both partners purified
T2 construct: NRPD1 open reading frame, A. thaliana, codon optimized synthetic gene; full-length NRPD1 is 1,453 amino acids; More in SI Appendix, Methods; also called FLAG-tagged NRPD1; not shown: FLAG, C-terminal, kept
T2 sequence (looked up): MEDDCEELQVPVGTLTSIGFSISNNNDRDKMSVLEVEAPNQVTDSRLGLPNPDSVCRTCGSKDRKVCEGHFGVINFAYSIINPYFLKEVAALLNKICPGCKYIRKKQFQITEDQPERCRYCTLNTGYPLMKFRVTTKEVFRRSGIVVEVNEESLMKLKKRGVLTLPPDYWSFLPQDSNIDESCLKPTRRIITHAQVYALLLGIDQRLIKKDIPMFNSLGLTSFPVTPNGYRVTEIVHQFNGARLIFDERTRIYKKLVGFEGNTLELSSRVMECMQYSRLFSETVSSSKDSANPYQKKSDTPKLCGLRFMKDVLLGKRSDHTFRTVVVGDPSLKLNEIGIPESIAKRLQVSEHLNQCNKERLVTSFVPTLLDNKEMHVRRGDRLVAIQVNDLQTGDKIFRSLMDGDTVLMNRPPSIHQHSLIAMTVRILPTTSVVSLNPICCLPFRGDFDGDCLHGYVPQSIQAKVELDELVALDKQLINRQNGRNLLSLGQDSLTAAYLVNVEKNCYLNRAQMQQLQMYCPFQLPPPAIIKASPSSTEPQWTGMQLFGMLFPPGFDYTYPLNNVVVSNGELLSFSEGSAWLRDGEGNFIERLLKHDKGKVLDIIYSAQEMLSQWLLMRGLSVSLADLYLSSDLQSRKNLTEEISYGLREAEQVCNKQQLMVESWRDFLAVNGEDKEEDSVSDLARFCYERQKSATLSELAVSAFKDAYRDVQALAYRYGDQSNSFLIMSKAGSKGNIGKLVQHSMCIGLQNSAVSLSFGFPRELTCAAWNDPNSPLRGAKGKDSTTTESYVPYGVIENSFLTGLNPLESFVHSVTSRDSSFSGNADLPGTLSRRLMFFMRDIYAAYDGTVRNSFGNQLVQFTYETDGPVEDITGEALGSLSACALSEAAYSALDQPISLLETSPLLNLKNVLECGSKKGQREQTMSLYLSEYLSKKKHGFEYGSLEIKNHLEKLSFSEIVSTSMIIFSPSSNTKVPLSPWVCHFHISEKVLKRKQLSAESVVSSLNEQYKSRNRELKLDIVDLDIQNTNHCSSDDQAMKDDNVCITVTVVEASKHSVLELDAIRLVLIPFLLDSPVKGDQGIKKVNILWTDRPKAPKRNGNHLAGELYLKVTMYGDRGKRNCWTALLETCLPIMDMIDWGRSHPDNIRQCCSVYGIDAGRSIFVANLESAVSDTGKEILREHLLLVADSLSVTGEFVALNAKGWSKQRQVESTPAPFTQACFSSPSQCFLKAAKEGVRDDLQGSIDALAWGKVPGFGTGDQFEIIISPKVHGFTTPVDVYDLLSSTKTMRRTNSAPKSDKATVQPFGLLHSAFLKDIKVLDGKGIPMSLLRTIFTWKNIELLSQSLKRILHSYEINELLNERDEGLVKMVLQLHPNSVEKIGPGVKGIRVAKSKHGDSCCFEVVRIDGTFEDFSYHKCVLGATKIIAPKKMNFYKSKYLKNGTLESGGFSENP

B1: recombinant RNA-DEPENDENT RNA POLYMERASE 2 (RDR2), wild type, with N-terminal V5 epitope and 6xHis tags (enzyme, A. thaliana, UniProt O82504 1-1133, looked up)
chain: MVSETTTNRSTVKISNVPQTIVADELLRFLELHLGEDTVFALEIPTTRDNWKPRDFARVQFTTLEVKSRAQLLSSQSKLLFKTHNLRLSEAYDDIIPRPVDPRKRLDDIVLTVGFPESDEKRFCALEKWDGVRCWILTEKRRVEFWVWESGDCYKIEVRFEDIIETLSCCVNGDASEIDAFLLKLKYGPKVFKRVTVHIATKFKSDRYRFCKEDFDFMWIRTTDFSGSKSIGTSTCFCLEVHNGSTMLDIFSGLPYYREDTLSLTYVDGKTFASAAQIVPLLNAAILGLEFPYEILFQLNALVHAQKISLFAASDMELIKILRGMSLETALVILKKLHQQSSICYDPVFFVKTQMQSVVKKMKHSPASAYKRLTEQNIMSCQRAYVTPSKIYLLGPELETANYVVKNFAEHVSDFMRVTFVEEDWSKLPANALSVNSKEGYFVKPSRTNIYNRVLSILGEGITVGPKRFEFLAFSASQLRGNSVWMFASNEKVKAEDIREWMGCFRKIRSISKCAARMGQLFSASRQTLIVRAQDVEQIPDIEVTTDGADYCFSDGIGKISLAFAKQVAQKCGLSHVPSAFQIRYGGYKGVIAVDRSSFRKLSLRDSMLKFDSNNRMLNVTRWTESMPCFLNREIICLLSTLGIEDAMFEAMQAVHLSMLGNMLEDRDAALNVLQKLSGENSKNLLVKMLLQGYAPSSEPYLSMMLRVHHESQLSELKSRCRILVPKGRILIGCMDEMGILEYGQVYVRVTLTKAELKSRDQSYFRKIDEETSVVIGKVVVTKNPCLHPGDIRVLDAIYEVHFEEKGYLDCIIFPQKGERPHPNECSGGDLDGDQFFVSWDEKIIPSEMDPPMDYAGSRPRLMDHDVTLEEIHKFFVDYMISDTLGVISTAHLVHADRDPEKARSQKCLELANLHSRAVDFAKTGAPAEMPYALKPREFPDFLERFEKPTYISESVFGKLYRAVKSSLAQRKPEAESEDTVAYDVTLEEAGFESFIETAKAHRDMYGEKLTSLMIYYGAANEEEILTGILKTKEMYLARDNRRYGDMKDRITLSVKDLHKEAMGWFEKSCEDEQQKKKLASAWYYVTYNPNHRDEKLTFLSFPWIVGDVLLDIKAENAQRQSVEEKTSGLVSI
binding result [1]: binds | binding result [2]: binds
